Test results reported in US12534748B2, “Engineered beta-subunit of tryptophan synthase for production of non-canonical amino acids” (California Institute of Technology, priority 2015, dated 2026).
Changes are numbered by the printed parent chain. Names and notes keep the numbering of the source.

Tests used:
[1] = substrate: c1ccc2[nH]ccc2c1; assay: Tryptophan formation from L-serine and indole, kinetics of wild-type AfTrpB; format: biochemical, Archaeoglobus fulgidus; conditions: other: 60° C., pH 8.0
Description: Kinetics and UV-Vis Spectroscopy. Data were collected between 550 and 250 nm on a UV1800 Shimadzu spectrophotometer (Shimadzu) using 0.25-20 μM of enzyme in 200 mM potassium phosphate (pH 8.0) in a quartz cuvette. […] PfTrpB activity (kcat) was measured by monitoring tryptophan formation at 290 nm using Δe290=1.89 mM^−1·cm^−1.
(§1) Cloning, expression, and purification of the different orthologs. The genes encoding AfTrpB (UNIPROT ID O28672), TmTrpB (UNIPROT ID P50909) and EcTrpB (UNIPROT ID P0A879) were obtained from IDT and cloned into pET22(b)+ using Gibson Assembly. Protein expression was carried out in E. coli BL21 E. cloni Express cells (Lucigen) by inoculating 10-mL Terrific Broth (with 100 μg/mL ampicillin (TBamp)) with a single colony and incubated over night at 37° C. and 250 rpm. These overnight cultures were used to scale up to 500-mL TBamp expression cultures, which were grown by shaking at 250 rpm and 37° C. for ˜3 h or until an OD600 of 0.8 was reached. […]
The three TrpB homologs and their corresponding 0B2 variants were expressed and purified, and then their kinetic properties (kcat and KM of indole) were measured. […] The UV-vis spectra of the enzymes was recorded before and after adding L-serine, relying on the diagnostic spectrum of the PLP cofactor to report the steady state population of the catalytic intermediates.

[2] = substrate: c1ccc2[nH]ccc2c1; assay: purified protein, by the assay type; conditions: pH 8.0
[3] = substrate: N[C@@H](CO)C(=O)O; assay: Tryptophan formation from L-serine and indole, kinetics of wild-type PfTrpB; format: biochemical, Pyrococcus furiosus; conditions: other: 75° C., pH 8.0
Description: (§2) Cloning, Expression, and Purification of PfTrpA and PfTrpB. The genes encoding PfTrpB (UNIPROT ID Q8U093) and PfTrpA (UNIPROT ID Q8U094) were obtained as gBlocks and cloned into pET22(b)+ for expression in E. coli BL21 E. cloni EXPRESS cells (Lucigen). Heterologous protein expression of PfTrpA and PfTrpB was performed in Terrific Broth with 100 μg/mL ampicillin (TBamp) and induced with 500 mM IPTG (final concentration 1 mM). PfTrpB was purified via a HisTrap HP column. PfTrpA was purified via a Q HP HiTrap column (flow-through), followed by ammonium sulfate precipitation, and hydrophobic interaction chromatography on a phenyl Sepharose HP HiTrap column (FIG. 3).
(§3) Kinetics and UV-Vis Spectroscopy. Data were collected between 550 and 250 nm on a UV1800 Shimadzu spectrophotometer (Shimadzu) using 0.25-20 μM of enzyme in 200 mM potassium phosphate (pH 8.0) in a quartz cuvette. Samples were incubated at 75° C. for >3 min to ensure a stable temperature was reached. PfTrpB activity (kcat) was measured by monitoring tryptophan formation at 290 nm using Δe290=1.89 mM^−1·cm^−1.
(§4) Selection of the Parent Enzyme, TrpB, from Pyrococcus furiosus. […]

[4] = substrate: c1ccc2[nH]ccc2c1; assay: as above; format: biochemical, Pyrococcus furiosus; conditions: other: 75° C., pH 8.0
Description: as §2, §3, §4

[5] = substrate: N[C@@H](CO)C(=O)O; assay: Tryptophan formation from L-serine and indole, kinetics of PfTrpS complex; format: biochemical, Pyrococcus furiosus; conditions: other: 75° C., pH 8.0
[6] = substrate: N[C@@H](CO)C(=O)O; assay: Tryptophan formation from L-serine and indole, kinetics of PfTrpB^2G9; format: biochemical, Pyrococcus furiosus; conditions: other: 75° C., pH 8.0
[7] = substrate: N[C@@H](CO)C(=O)O; assay: Tryptophan formation from L-serine and indole, kinetics of PfTrpB^4D11; format: biochemical, Pyrococcus furiosus; conditions: other: 75° C., pH 8.0
[8] = substrate: N[C@@H](CO)C(=O)O; assay: purified protein, by the assay type; conditions: other: 75° C., pH 8.0
[9] = substrate: c1ccc2[nH]ccc2c1; assay: Tryptophan formation from L-serine and indole, kinetics of TmTrpB^T292S; format: biochemical, Thermotoga maritima; conditions: other: 75° C., pH 8.0
Description: as §3, §1
The next homolog, TmTrpB, was examined. […] The variants without the T292S mutation lacked this probative absorbance peak, but the decrease at 428 nm and concomitant increase at 350 nm are consistent with a similar, though less pronounced activation.

B1: Archaeoglobus fulgidus tryptophan synthase beta-subunit AfTrpB, wild type, SEQ ID NO: 4 (Archaeoglobus fulgidus DSM 4304) (protein)
chain: MRCWLENLSGGRKMKFGEFGGRFVPEVLIPPLEELEKAYDRFKDDEEFKARLEYYLKSYAGRPTPLYFAENLSRELGVKIYLKREDLLHGGAHKINNTIGQALLAKFMGKKRVIAETGAGQHGVATAMAAALLGLEAEIYMGAEDYERQKMNVFRMELLGAKVTAVESGSRTLKDAINEALRDWVESFEHTHYLIGSVVGPHPFPTIVRDFQAVIGKEARRQIIEAEGGMPDAIIACVGGGSNAMGIFHPFLNDDVRLIGVEAGGEGIESGRHSASLTAGSKGVLHGMLSYFLQDEEGMMLDTHSVSAGLDYPGVGPEHAYLKETGRCEYVTVNDEEALRAFKTLSKLEGIIPALESAHAIAYAMKMAEEMQRDDVLVVNLSGRGDKDMDIVRRRLALEHHHHHH
Km [1]: 12 µM

B2: Archaeoglobus fulgidus TrpB variant AfTrpB^0B2 (P25L, E30G, I80V, F285S, T303S, T332A), SEQ ID NO: 22 (Archaeoglobus fulgidus DSM 4304; … (protein)
chain: B1 chain with P25L, P30G, I80V, L285S, T303S, T332A
Km ([2]; other: 60° C.): 4.8 µM

B3: Pyrococcus furiosus tryptophan synthase beta-subunit PfTrpB, wild type, SEQ ID NO: 2 (Pyrococcus furiosus DSM 3638) (protein)
chain: MWFGEFGGQYVPETLIEPLKELEKAYKRFKDDEEFNRQLNYYLKTWAGRPTPLYYAKRLTEKIGGAKIYLKREDLVHGGAHKTNNAIGQALLAKFMGKTRLIAETGAGQHGVATAMAGALLGMKVDIYMGAEDVERQKMNVFRMKLLGANVIPVNSGSRTLKDAINEALRDWVATFEYTHYLIGSVVGPHPYPTIVRDFQSVIGREAKAQILEAEGQLPDVIVACVGGGSNAMGIFYPFVNDKKVKLVGVEAGGKGLESGKHSASLNAGQVGVFHGMLSYFLQDEEGQIKPTHSIAPGLDYPGVGPEHAYLKKIQRAEYVTVTDEEALKAFHELSRTEGIIPALESAHAVAYAMKLAKEMSRDEIIIVNLSGRGDKDLDIVLKVSGNVLEHHHHHH
Km [3]: 1.2 ± 0.1 mM | Km [4]: 77 ± 12 µM

B4: Pyrococcus furiosus TrpB variant M144T N166D (Table 6 prints N166T), SEQ ID NO: 20 (Pyrococcus furiosus DSM 3638; M144T/N166D) (protein)
chain: B3 chain with M144T, N166D
Km ([2]; other: 75° C.): 42 µM

B5: Pyrococcus furiosus tryptophan synthase complex PfTrpS (PfTrpA + PfTrpB) (Pyrococcus furiosus DSM 3638) (protein)
chain: B3 chain
Km [5]: 0.6 mM

B6: Pyrococcus furiosus TrpB variant PfTrpB^2G9 (T292S), SEQ ID NO: 10 (Pyrococcus furiosus DSM 3638; T292S) (protein)
chain: B3 chain with T292S
Km [6]: 0.84 mM

B7: Pyrococcus furiosus TrpB variant PfTrpB^4D11 (E17G, I68V, T292S, F274S, T321A), SEQ ID NO: 16 (Pyrococcus furiosus DSM 3638; E17G/F274S/I68V/T292S/T321A) (protein)
chain: B3 chain with E17G, I68V, F274S, T292S, T321A
Km [7]: 1.2 mM

B8: Pyrococcus furiosus TrpB variant PfTrpB^0B2 (P12L, E17G, I68V, T292S, F274S, T321A), SEQ ID NO: 12 (Pyrococcus furiosus DSM 3638; … (protein)
chain: B3 chain with P12L, E17G, I68V, F274S, T292S, T321A
Km [8]: 0.7 mM | Km ([2]; other: 75° C.): 8.7 µM

B9: Thermotoga maritima TrpB variant TmTrpB^T292S, SEQ ID NO: 26 (Thermotoga maritima MSB8; T292S) (protein)
chain: MKGYFGPYGGQYVPEILMPALEELEAAYEEIMKDESFWKEFNDLLRDYAGRPTPLYFARRLSEKYGARIYLKREDLLHTGAHKINNAIGQVLLAKKMGKTRIIAETGAGQHGVATATAAALFGMECVIYMGEEDTIRQKPNVERMKLLGAKVVPVKSGSRTLKDAINEALRDWITNLQTTYYVIGSVVGPHPYPIIVRNFQKVIGEETKKQILEKEGRLPDYIVACVGGGSNAAGIFYPFIDSGVKLIGVEAGGEGLETGKHAASLLKGKIGYLHGSKTFVLQDDWGQVQVSHSVSAGLDYSGVGPEHAYWRETGKVLYDAVTDEEALDAFIELSRLEGIIPALESSHALAYLKKINIKGKVVVVNLSGRGDKDLESVLNHPYVRERIRLEHHHHHH
Km [9]: 25 µM

B10: Thermotoga maritima TrpB variant TmTrpB^0B2 (P14L, P19G, I69V, L274S, T292S) (Thermotoga maritima MSB8; I69V/L274S/P14L/P19G/T292S) (protein)
chain: B9 chain with P14L, P19G, I69V, L274S
Km ([2]; other: 75° C.): 72 µM
